{"source": "patent US20200109197A1", "molecular_target": "recombinant anti-human CD3 antibody with TEV cleavage site in the upper hinge region of mouse IgG1 (mouse) [IgG part: P01868]", "test": "cell-based or functional assay", "data": [{"substance": "AcTEV™ Protease (from UniProt P04517 2038-2279) (enzyme)", "values": [{"measurement": "kappa-positive faction of beads after one hour incubation with the protease, 37° C.", "result": 7, "unit": "%"}, {"measurement": "kappa-positive faction of beads after one hour incubation with the protease, room temperature", "result": 19, "unit": "%"}]}]}
